One block for each molecule: values may come before it.
How the values were obtained:
[1] = biological target: IL-17RA and IL-17RC co-expressed on 293F-IL-17RA-IL-17Rc-ACT1-NFκB-Luc cells (UniProt Q96F46); experiment: FACS, IL-17A on 293 cells overexpressing IL-17RA and IL-17RC
[2] = biological target: T1, Human IL-17A重组蛋白 (IL-17A-His) (human, UniProt Q16552 24-155, biotin label in the ELISA of Example 2 (Biotin-IL-17A-His); site not stated); experiment: ELISA, antibody coated at 2 ug/mL, Biotin-IL-17A-His titrated from 10 ug/mL (5-fold, 7 points), HRP-streptavidin
T1 construct: also called IL-17A抗原蛋白; Biotin-IL-17A-His

[3] = biological target: T1, Human IL-17A重组蛋白 (IL-17A-His); experiment: cell-based or functional assay

T1 sequence (Q16552 other isoform, or with tags, fused parts or gaps limits assumed): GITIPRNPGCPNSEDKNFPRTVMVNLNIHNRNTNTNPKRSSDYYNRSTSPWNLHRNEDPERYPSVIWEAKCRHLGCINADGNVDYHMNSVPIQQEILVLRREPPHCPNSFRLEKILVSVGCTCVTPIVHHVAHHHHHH

Molecule: Human IL-17A重组蛋白 (IL-17A-His) (from UniProt Q16552 24-155) (ligand)
阳性率 [1]: > 90%

B1: Ixekizumab (antibody, human IgG4 S228P, kappa, V domains shown)
VH: QVQLVQSGAEVKKPGSSVKVSCKASGYSFTDYHIHWVRQAPGQGLEWMGVINPMYGTTDYNQRFKGRVTITADESTSTAYMELSSLRSEDTAVYYCARYDYFTGTGVYWGQGTLVTVSS
VL: DIVMTQTPLSLSVTPGQPASISCRSSRSLVHSRGNTYLHWYLQKPGQSPQLLIYKVSNRFIGVPDRFSGSGSGTDFTLKISRVEAEDVGVYYCSQSTHLPFTFGQGTKLEIKR
notes: Made in house from the variable regions cloned into pcDNA3.4-hIgG4 and pcDNA3.4-hIgKc vectors; positive control; also called 阳性对照抗体Ixekizumab; 对照抗体Ixekizumab
EC50 [2]: 10.1 µg/mL | IC50, 阻断活性 (reporter cells) [3]: 1.36 µg/mL

B3: 串联纳米抗体C11-1-F2 (Fc fusion)
chain: DVQLVESGGGLVQPGGSLRLSCAASESLLRLYAMGWYRQLPGQEREWVAIHTTSDTTNYRDSVKGRFTLSRDVATNTIYLQMTSLKPEDTAVYYCHVTSMRDSQNYWGQGTQVTVSSGGGGSGGGGSGGGGSQVQLVESGGGLVQPGGSMRLSCAASTIGLSIYSGAWYRQAAGKQRELVARITRRGVTNYADSVKGRFTISKDNAKNTVSLEMNSLKPEDTAVYYCNVGGEDGYWGQGTQVTVSS
EC50 [2]: 0.745 µg/mL | IC50, 阻断活性 (reporter cells) [3]: 1.16 µg/mL

The remaining lines, values ahead:

EC50 [2]: 30 µg/mL | IC50, 阻断活性 (reporter cells) [3]: 18.8 µg/mL
B2: 单域抗体(1)(1-C11) (Fc fusion)
chain: DVQLVESGGGLVQPGGSLRLSCAASESLLRLYAMGWYRQLPGQEREWVAIHTTSDTTNYRDSVKGRFTLSRDVATNTIYLQMTSLKPEDTAVYYCHVTSMRDSQNYWGQGTQVTVSS

EC50 [2]: 4.04 µg/mL | IC50, 阻断活性 (reporter cells) [3]: 14.2 µg/mL
B4: 单域抗体(2)(1-F2) (Fc fusion)
chain: QVQLVESGGGLVQPGGSMRLSCAASTIGLSIYSGAWYRQAAGKQRELVARITRRGVTNYADSVKGRFTISKDNAKNTVSLEMNSLKPEDTAVYYCNVGGEDGYWGQGTQVTVSS
